Reference: patent publication US6803501B2 (Monsanto Technology, LLC, priority 2000, dated 2004)
Where a chain is given by its changes, count along the chain named. In names and notes the source's numbering stands.

Experiments:
[1] = target: T1, P. hybrida glypS (wt) EPSPS (Petunia hybrida, glyphosate sensitive, wild type) (Petunia hybrida, UniProt P11043); experiment: kinetic characterization of EPSP synthase (Table 4); format: biochemical; settings: read-out: apparent Km for PEP; saturating shikimate-3-phosphate
T1 sequence (P11043 73-516): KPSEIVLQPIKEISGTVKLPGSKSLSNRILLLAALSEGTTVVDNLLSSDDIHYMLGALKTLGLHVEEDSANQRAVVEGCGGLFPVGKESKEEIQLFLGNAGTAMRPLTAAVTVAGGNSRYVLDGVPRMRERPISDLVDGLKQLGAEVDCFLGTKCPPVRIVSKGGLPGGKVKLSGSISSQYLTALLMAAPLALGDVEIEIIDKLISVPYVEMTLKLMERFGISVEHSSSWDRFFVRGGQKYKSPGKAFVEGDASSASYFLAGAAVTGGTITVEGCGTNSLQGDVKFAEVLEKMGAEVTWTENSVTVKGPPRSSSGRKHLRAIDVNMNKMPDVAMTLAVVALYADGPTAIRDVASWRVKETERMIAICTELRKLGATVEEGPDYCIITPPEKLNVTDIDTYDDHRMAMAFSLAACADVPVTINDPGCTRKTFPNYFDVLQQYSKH
Experimental: Final sample volumes are approximately 0.5 ml.

[2] = substrate: C=C(OP(=O)(O)O)C(=O)O; experiment: purified protein, by the assay type; settings: other: saturating shikimate-3-phosphate; 25.0 °C
[3] = substrate: C=C(OP(=O)(O)O)C(=O)O; experiment: kinetic characterization of EPSP synthase (Table 4); format: biochemical, Petunia hybrida; settings: other: saturating shikimate-3-phosphate; 25.0 °C
Experimental: Preparation of extracts and radiometric EPSP synthase assays are performed using methods adapted from published procedures (Padgette et al., J. Biol. Chem. 266:22364-22369 (1991). Crown regions are dissected from whole plants, pulverized under liquid nitrogen with a mortar and pestle, then stored at −80° C. prior to extraction. Homogenates are prepared from 0.5 g tissue per sample in 25 ml extraction buffer (100 mM TrisCl, 10% glycerol, 1 mM EDTA, 1 mM benzamidine, 1 mM dithiothreitol, 1 mM 4-(2-aminoethyl)-benzenesulfonyl floride HCl, 0.1 mM leupeptin, pH 7.4) at 4° C. using a model PT3000 Polytron homogenizer (Brinkman Instuments Inc., Westbury, N.Y.). Debris is removed by 0.2 μm filtration, then the resulting supernatant is concentrated and desalted using an Ultrafree-15 centrifugal filtration unit (cat.#UFV2-BGC-10, Millipore Corp., Bedford, Mass.). […] Protein concentrations are determined spectrophotometrically using the Bio-Rad protein assay reagent (cat.#500-0006, Bio-Rad Laboratories, Hercules, Calif.). EPSPS specific activities are determined by assaying 10 μl extract at 25° C. for 5-15 min. […] Reactions are quenched with the addition of 50 μl 9:1 ethanol: 0.1 M acetic acid. […]

[4] = substrate: C=C(OP(=O)(O)O)C(=O)O; experiment: cells, lysate or membranes named; settings: other: saturating shikimate-3-phosphate; 25.0 °C

Molecule: C=C(OP(=O)(O)O)C(=O)O [PEP, phosphoenolpyruvate]
- Km [1]: 5 µM

B1: E. indica glypS EPSPS (Eleusine indica, naturally occurring glyphosate sensitive, wild type) (Eleusine indica) (protein)
chain: AGAEEVVLQPIKEISGVVKLPGSKSLSNRILLLSALAEGTTVVDNLLNSEDVHYMLGALKTLGLSVEADKAAKRAVVVGCGGKFPVEKDAKEEVQLFLGNAGTAMRPLTAAVTAAGGNATYVLDGVPRMRERPIGDLVVGLKQLGADVDCFLGTDCPPVRVKGIGGLPGGKVKLSGSISSQYLSALLMAAPLALGDVEIEIIDKLISIPYVEMTLRLMERFGVKAEHSDSWDRFYIKGGQKYKSPKNAYVEGDASSASYFLAGAAITGGTVTVEGCGTTSLQGDVKFAEVLEMMGAKVTWTETSVTVTGPQREPFGRKHLKAIDVNMNKMPDVAMTLAVVALFADGPTAIRDVASWRVKETERMVAIRTELTKLGASVEEGPDYCIITPPEKLNVTAIDTYDDHRMAMAFSLAACADVPVTIRDPGCTRKTFPDYFDVLSTFVKN
- Km [2]: 5 µM

B2: E. indica glypR (Pro-Ser) EPSPS (Eleusine indica, naturally occurring glyphosate resistant, serine for proline at position 107, SEQ ID NO:7) (Eleusine indica) (protein)
chain: B1 chain with P107S, P382L
- Km [2]: 7 µM

B3: P. hybrida EPSPS variant glypR (Pro-Ser) (Petunia x hybrida; P178S) (protein)
chain: T1 sequence (P11043 73-516) with P106S
- Km [3]: 44 µM

B4: P. hybrida EPSPS variant glypR (Gly-Ala, Pro-Ser) (Petunia x hybrida; G173A/P178S) (protein)
chain: T1 sequence (P11043 73-516) with G101A, P106S
- Km [3]: 340 µM

B5: P. hybrida EPSPS variant glypR (Gly-Ala) (Petunia x hybrida; G173A) (protein)
chain: T1 sequence (P11043 73-516) with G101A
- Km [3]: 200 µM

B6: Z. mays glypS (wt) EPSPS (Zea mays, glyphosate sensitive, wild type) (Zea mays) (protein)
chain: AGAEEIVLQPIKEISGTVKLPGSKSLSNRILLLAALSEGTTVVDNLLNSEDVHYMLGALRTLGLSVEADKAAKRAVVVGCGGKFPVEDSKEEVQLFLGNAGTAMRPLTAAVTAAGGNATYVLDGVPRMRERPIGDLVVGLKQLGADVDCFLGTDCPPVRVNGIGGLPGGKVKLSGSISSQYLSALLMAAPLALGDVEIEIIDKLISIPYVEMTLRLMERFGVKAEHSDSWDRFYIKGGQKYKSPKNAYVEGDASSASYFLAGAAITGGTVTVEGCGTTSLQGDVKFAEVLEMMGAKVTWTETSVTVTGPPREPFGRKHLKAIDVNMNKMPDVAMTLAVVALFADGPTAIRDVASWRVKETERMVAIRTELTKLGASVEEGPDYCIITPPEKLNVTAIDTYDDHRMAMAFSLAACAEVPVTIRDPGCTRKTFPDYFDVLSTFVKN
- Km [4]: 5 µM
